This data set can be described thus: yeast display, Sf9 membrane polyspecificity reagent, FACS + sequencing; frameworks hold sequencing errors. Summed up:
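Polyreactivity labels are assigned by the sorting gate from which each nanobody was recovered. The gates were low and high (top ~1%), set on anti-HA fluorescence for expression and streptavidin fluorescence for reagent binding. Before sorting, galactose-induced (36–48 hours) yeast display cells were stained for 1 hour at 4 °C with 10% biotinylated, detergent-solubilized Sf9 membrane reagent.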
Consider “QVQLVESGGGLVQAGGSLRLSCAASGFIFGNYVMGWYRQAPGKERELVAAITNGGGNTYYADSVKGRFTISRDNAKNTVYLQMNSLKPEDTAVYYCHPLRYYYWGQGTQVTVSS”, for which the “polyreactivity (PSR sort gate)” value is listed as “high polyreactivity”. The entry for “QVQLQERGGGLVQAGGSLRLSCAASGIIYADGFMGLYRQAPGKELEFVANITGGGTSNYADSVKGGFTISRDNAKNTVYLQMNSLKPEDTAVYFCAVYFAWTIGFTYWGQGTQVTVSS” is “high polyreactivity”. “QVQLVESGGGLVQAGGSLRLSCAASGSTISYYAMGWYRQAPGKERELVAAITWNGGSTYYADSVKGRFTISRDNAKNTVYLQMNSLKPEDTAVYYCAKDTYYYDYDYWGQGTQVTVSS”: the “polyreactivity (PSR sort gate)” value is on record as “low polyreactivity”. With “QVQLVESGGGLVQEGGSLRLSCAASGFTYYHYAMGWYRHAPGKERELVAAITWSGGDTYYADSVKGRFTISRDNAKNTVYLQMNSLKPDDTAVYYCNADDPPGARYFDSFDYRGDYWGQGTQVTVSS”, the “polyreactivity (PSR sort gate)” value is recorded as “low polyreactivity”. To “QVQLVESGGGLVQAGGSLRLSCAACGSLFGYNAMGWYRQAPGKERELVAAISYSGGSTYYADSVKGRFTISRDNAKNTDFLQMNSLKPEETAVYYCNAYRRYKDEDYWGQGTQVTVSS” belongs “high polyreactivity”; to “QVQLVESGGGLVQAGGSLRLSCAASGFTFKSYAMGWYRQAPGKERELVAAINRSGGSTYYADSVKGRFTISRDNAKNTVYLQMNSLKPEDTAVYYCAAVKPPDYYYWGQGTQVTVSS”, “high polyreactivity”; to “QVQLVESGGGLVQAGGSLRLSCAASGRTYYWYAMGWYRQAPGKERELVAAISSGGSTYYADSVKGRFTISRDNAKNTVSLQMISLKPEDTAVYYCAAYPQAYIADYDYWGQGTQVTVSS”, “low polyreactivity”. The entry for “QVQLVESGGGLVQAGGSLRLSCAASGSTFQSNAMGWYRQAPGTEREMVATITRGGGTSYADSVKGRFTISRDNAKNTVYVQMNSLQPEDTAVYYCNARRQRYYTQGRFYYWGQGTQVTVSS” is “high polyreactivity”; for “QVQLVESGGGLVQAGGSLRLSCAASGSTFEIYAMGWYRQAPGKERELVAAITRSGRTNYADSVKGRFTISRDNAKNTVYLQMNSLKPEDTAVYYCAAGVWGRDRKYGYWGQGTQVTVSS” it is “high polyreactivity”. To “QVQLQESGGGLVQAGGSPRLSCAESDNIYPDSVICWYRQAPGKERELVATIGFGATTNYADSVKGRLTISRDNAKNTVYLQMNSLKPEDTAVYYCAADPLNYEYFCYWGQGTQVTVSS” belongs “low polyreactivity”; to “QVQLVESGGGLVQAGGSLRLSCAASPLTFRYYDMGWYRQAPGKERELVAAISRTGRTNYADSVKGRFTISRDNAKNTVYVQMNSLKPEDTAVYYCAATGIYAKALLWYDYWGQGTQVTVSS”, “high polyreactivity”. In the case of “QVQLVESGGGLVQAGGSLRLSCAASGRTFSKYAMAWYRQAPGKERELVAAISSSGGSTYYADSVKGRFTISRDNAKNTVYLQMNSLKPEDTAVYYCATRVYPRYWFTTRYRYDYWGQGTQVTVSS”, the “polyreactivity (PSR sort gate)” value is listed as “low polyreactivity”. The entry for “QVQLVESGGGLVQAGGSLRLICAASGRTFSSNAMGWYRPAPGNERELVAAISTSGGRTYYADSVKGRCTISRDNAKNTVYLQMNSLKPEDTAVYYGAAEYVGTGTPDDYAYWGQGTQVTVSS” is “high polyreactivity”; for “QVQLVESGGGLVQAGGSLRLSCAASGSTFQRYAMGWYRQAPGKERELVAAITSGGSTYYADSVKGRFTISRDNAKNTVYLQMISLKPEDTAVYYCNAAWFYRYGYWGQGTQVTVSS” it is “high polyreactivity”. The entry for “QVQLVESRGGLVQAGGSLRLSCDASGSTIFENVMGWYRQAPGKEREFVAAINTSGGSTYYADSVKGRFTISRDNAKNTVYLQMNSLKPEDTAVYYCARDSYWEMDYWGQGTQVTVSS” is “low polyreactivity”. On to “QVQLVESGGGLVQAGGSLRLSCAASGFTFFSNAMGWYRQAPGKEREFVASISRSGGRTYYADSVKGRFTISRDNAKNTVYLQMNSLKPEDTAVYYCAADVPYYLHNHRYGYWGQGTQVTVSS”, for which the “polyreactivity (PSR sort gate)” value is given as “high polyreactivity”. Turning to “QVQLVESGGGLVQAGGSLRLSCAASGFTFGENDMGWYRQAPGKERELVATISYSGDSTYYAVSVKGLFTISRVNGKNTVYLHMNSLKPEDTAVYYCAAPLPHRVYDEGYWRQGTQVTVSS”, the “polyreactivity (PSR sort gate)” value is “low polyreactivity”. The entry for “QVQLVESGGGLVQAGGSLRLSCAASGYTFKTYAMGWYIQAPGKERELVAAISGSGGSTYYADSVKGRFTISRDNAKNTVYLQMNSLKPEDTEVYFCAATNWWGTEYDYWGQGTQVTVSS” is “high polyreactivity”; for “QVQLVESGGGLVQAGGSLRLSCAASGRIFKVNAMGWYRQAPGKERELVAVINSRGGSTYYADSVKGRFTISRDNAKNTVYLQMNSLKPEDTAVYYCAAPLTYFKRVYYWGQGTQVTVSS” it is “high polyreactivity”. On to “QVQLVESGGGIVQAGVSLRLSCAASGSTFRDYAMGWSRPAPGKERELVAAISNSGGRTYYADSVKGRFTISRDNAKNTVYLQMYSLKPEDTAVYYCNAGRQTKWGQGTQVTVSS”, for which the “polyreactivity (PSR sort gate)” value was “high polyreactivity”.

In the case of “QVQLVESGGGLVQAGGSLRLSCAASGIIFSSYAMGWYRQAPGKERELVAAITYNGGRTYYADSVKGRFTISRDNAKNTVYLQMNSLKPEDTAVYYCAARTYGGNVLRLDYWGQGTQVTVSS”, the “polyreactivity (PSR sort gate)” value is “high polyreactivity”.

In the case of “QVQLVESGGGLVQAGGSLRLSCAASGSIFGYYAMGWYRQAPGKERELVASISWSGTSTYYADSVKGRFTISRDNAKNTVYLQMNSLKPEDTAVYYCATKGLFTNSPLYVSAYDYWGQGTQVTVSS”, the “polyreactivity (PSR sort gate)” value is recorded as “low polyreactivity”. Take “QVQLVESGGGLVQAGGSLRLSCAASGRTFAIYAMGWYRQAPGKERELVAAIRKRGSITYYADSVKGRFTISRDNAKNTVYLQMNSLKPEDTAVYYCAVDYWGQGTQVTVSS”: the “polyreactivity (PSR sort gate)” value is reported as “high polyreactivity”. To “QVQLVDSGGGLVQAGGSHRLSCAASGFTFPYNAMGWYRQAPGKERELVAANSSTGGITYYADSVKGRFTISRDNAKNTVYLQMNSLKPEDTAVYYCGWYDYWGQGTQVTVSS” belongs “low polyreactivity”; to “QVQLVESGGGLVQAGGSLRLSCAASGSIFVGYTMGWYRQAPGKERELVAAITSTGGSTSYADSVKGRFTISRDNAKNTVYLQMNSLKPEDTAVYYCAARGRGKTTSVAYYYWGQGTQVTVSS”, “high polyreactivity”. For the sequence “QVQLVESGGGLVQAGGSLRLSCAASGRIFNDYAMGWYRQAPGKERELVAVIRRSGVSTYYADSVKGRFTISRDNAKNTVYLQMNSLKPEDTAVYYCAADIRSNRLYDGGYWGQGTQVTVSS”, the “polyreactivity (PSR sort gate)” value is given as “low polyreactivity”. The entry for “QVQLQESGGSLVQAGGILRLSCAACGNIFPSAVMGWYRQALGKEREFVATINSGSYTYYADSVKVRFTISRDNAKNTVYLQMNSLKLDDSAVYYCAAYFKLPAWHTYWGQGTQVTVSS” is “low polyreactivity”. Regarding “QVQLVESGGGLVQAGGSLRLRCAASGLTFRKYPMGWYRPAPGKERELVATISRNGGSTYSADSVKGRFTISSDNAKITVYLQMNSLKPEDTAVYYCAADYYTYDYAGYGYWGQGTQVTVSS”, the “polyreactivity (PSR sort gate)” value was “high polyreactivity”. The entry for “QVQLVESGGGLVQAGGSLRLSCAASGSIISYNTMGWYRQAPGKEREFVASIRRRGGSTYYADSVKGRFTISRDNAKNTVYLQMNSLKPEDTAGYYCAKANPHYVISDGVYHPRGGYWGHGTQVTVSS” is “low polyreactivity”. For the sequence “QVQLVESGGGLVQAGGSLRLSCAASGGTFEFYTMGLYRQAPGKERELVAVINASGDSTYYADSVKGRFTISRDNAKNTVYLQMNSLKPEDTAVYYCAADHRGEYDYWGQGTQVTVSS”, the “polyreactivity (PSR sort gate)” value was “low polyreactivity”. To “QVQLVESGGGLVQAGGSLRLSCAASGRTFIPYAMGWYRQAPGKERELVAAISTTAGTTYYADSVKGRFTISRDNAKNTVYLQMNSLKPEDTAVYYCAARRRWYRRYGGDFWGQGTQVTVSS” belongs “high polyreactivity”; to “QVQLVESGGGLVQAGGSLRLSCASSGRIIRRNAMGWYRQAPGKERELVASISQGGSTYYADSVKGRFTISRDNAKNTVYLQMNSLKPEDTAVYYCAATLSYYVGVRYDYWGQGTQVTVSS”, “high polyreactivity”. Consider “QVQLVESGGGLVQAGGSLRLSCAASGNTFSYNAMGWYRQAPGKEKELVAGITWSGGSTYYADSVKGRFTISRDNAKNTVYLQMNSLKPEDTAVYYCAKGYGSGVVRSRWSKYGYWGQGTQVTVSS”, for which the “polyreactivity (PSR sort gate)” value is “high polyreactivity”. Take “QVQLVESGGGLVQAGGSLRLSCAASGNIFVEYAMGWYRPAPGKERELVAAITNSGGRTHYSDSVKGRFTISRDNAKNTVYLQMNSLKPEDSEVYFCAAPTKYRSRRYYWGQGTQVTVSS”: the “polyreactivity (PSR sort gate)” value is “high polyreactivity”.

“QVQLVESGGGLVQAGGSLRLSCAASGLIFRIYAMGWYRQAPGKETELVAAISNSGGYTYYADSVKGRFTISRDNAKNTVYLQMNSLKPEDTAVYYCAAELRLWPWRRFDYWGQGTQVTVSS”: the “polyreactivity (PSR sort gate)” value is “high polyreactivity”. To “QVQLVESGGGLVQAGGSLRLSCAASGSISRYAMGWSRQAPGKERELVAAITRSGGSTHYADSVKGRFTISRDNAKNTVYLQMNSLKPEDTAVYYCATRYYRGVIRYPYDSWGQGTQVTVSS” belongs “high polyreactivity”; to “QVQLVESGGGLVQAGGSLRLSSAASGFTFVINDMGWYRPAPGKERELVADITSGGDTYYADSVKGRFTISRDNAKNTVYLQMNSLKPEDTAVYYCAADIYPDWIYLLYGYWGQGTQVTVSS”, “low polyreactivity”; to “QVQLVESGGGLVQAGGSLRLSCAASGRIFDGYAMGWYRQAPGKERELVAAISNGGGSTYYADSVKGRFTISRDNAKNTVYLQMNSLKPEDTAVYYCAARIFSRYTRNYWGQGTQVTVSS”, “high polyreactivity”. For “QVQLVESGGGLVQAGGSLRLSCAASGRTFGRYAMGWYRQAPGKEREFVASISRRGGSTNYADSVKGRFTISRDNAKNTVYLQMNSLKPEDTAVYYCAKRFTLPLSEYDYWGQGTQVTVSS”, the “polyreactivity (PSR sort gate)” value is recorded as “high polyreactivity”. To “QVQIVESGGGLVQAGGSLRISCAASGSTFPRNVMGWYRQAPGKERELVAAITSSGGSTYYADSVKGRFTISRDNAQHTVYLQMNSLKPADTAVYYCNAVSYYLGDDYWGQGTQVTVSS” belongs “high polyreactivity”. The entry for “QVQLVDSGGGLVQAAGSLRLSCAASGRIFYYNAKGCYRQAPVKERELVAAITRSGGSTYYADSVKGRFTSSRDNAKHTVYLQMNSLKPEDTAVYYCAKPDRTGWLDGDYWGQGTQVTVSS” is “low polyreactivity”.

Values taken from the nanobody polyreactivity screen of Harvey et al. (2022).
